# In IntAct's records for PubMed 9819391:
# Columns and labels:
# crk_human CRK = crk_human CRK (UniProt P46108)
# src_chick SRC [1] = target: src_chick SRC (UniProt P00523)
# src_chick SRC [2] = target: src_chick SRC (UniProt P00523); remark: listed apart in the source
# crk_human CRK, sequence (P46108 whole entry): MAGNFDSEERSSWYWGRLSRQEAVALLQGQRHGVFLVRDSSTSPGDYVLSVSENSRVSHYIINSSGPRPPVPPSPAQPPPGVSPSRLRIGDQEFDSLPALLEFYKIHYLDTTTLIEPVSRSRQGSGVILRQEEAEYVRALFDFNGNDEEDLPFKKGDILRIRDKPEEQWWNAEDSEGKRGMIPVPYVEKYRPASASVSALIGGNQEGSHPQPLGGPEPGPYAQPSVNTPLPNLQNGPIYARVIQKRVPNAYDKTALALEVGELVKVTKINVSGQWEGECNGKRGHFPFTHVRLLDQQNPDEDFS
# Arf-GAP with SH3 domain, ANK repeat and PH domain-containing protein 1 (Mus musculus), Q9QWY8-1 R811A, sequence (Q9QWY8 whole entry R811A, the tested form may be a part): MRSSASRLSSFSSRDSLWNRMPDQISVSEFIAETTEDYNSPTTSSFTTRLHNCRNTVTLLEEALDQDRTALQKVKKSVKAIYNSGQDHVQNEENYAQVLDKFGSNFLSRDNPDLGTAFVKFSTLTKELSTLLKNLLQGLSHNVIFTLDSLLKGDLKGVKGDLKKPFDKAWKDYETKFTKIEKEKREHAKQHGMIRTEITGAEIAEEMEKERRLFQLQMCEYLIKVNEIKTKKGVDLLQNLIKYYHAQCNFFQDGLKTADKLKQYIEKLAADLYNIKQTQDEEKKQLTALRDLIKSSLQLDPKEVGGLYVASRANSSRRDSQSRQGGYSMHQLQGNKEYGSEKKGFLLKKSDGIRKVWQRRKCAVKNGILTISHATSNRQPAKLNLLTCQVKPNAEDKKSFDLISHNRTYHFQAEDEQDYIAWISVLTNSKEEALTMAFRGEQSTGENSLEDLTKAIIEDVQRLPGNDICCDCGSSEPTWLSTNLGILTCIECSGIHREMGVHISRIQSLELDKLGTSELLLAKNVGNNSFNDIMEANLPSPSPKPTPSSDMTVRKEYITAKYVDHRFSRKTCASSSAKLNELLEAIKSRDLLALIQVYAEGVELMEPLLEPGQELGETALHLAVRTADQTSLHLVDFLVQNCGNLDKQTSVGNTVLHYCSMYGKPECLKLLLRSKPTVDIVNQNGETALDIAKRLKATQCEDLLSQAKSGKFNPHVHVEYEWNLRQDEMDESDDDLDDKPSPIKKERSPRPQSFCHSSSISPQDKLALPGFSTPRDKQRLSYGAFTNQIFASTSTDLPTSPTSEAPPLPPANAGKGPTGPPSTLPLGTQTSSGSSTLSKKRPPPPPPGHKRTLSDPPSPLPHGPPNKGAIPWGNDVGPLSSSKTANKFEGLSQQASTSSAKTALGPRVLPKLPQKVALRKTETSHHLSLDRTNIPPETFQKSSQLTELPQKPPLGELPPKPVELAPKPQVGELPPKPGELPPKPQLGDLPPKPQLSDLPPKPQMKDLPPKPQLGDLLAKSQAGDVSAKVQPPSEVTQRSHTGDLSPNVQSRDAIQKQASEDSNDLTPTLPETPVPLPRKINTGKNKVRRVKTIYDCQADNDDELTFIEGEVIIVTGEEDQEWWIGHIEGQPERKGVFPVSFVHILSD
# Arf-GAP with SH3 domain, ANK repeat and PH domain-containing protein 1 (Mus musculus), Q9QWY8-1 P910A;P913A, sequence (Q9QWY8 whole entry P910A/P913A, the tested form may be a part): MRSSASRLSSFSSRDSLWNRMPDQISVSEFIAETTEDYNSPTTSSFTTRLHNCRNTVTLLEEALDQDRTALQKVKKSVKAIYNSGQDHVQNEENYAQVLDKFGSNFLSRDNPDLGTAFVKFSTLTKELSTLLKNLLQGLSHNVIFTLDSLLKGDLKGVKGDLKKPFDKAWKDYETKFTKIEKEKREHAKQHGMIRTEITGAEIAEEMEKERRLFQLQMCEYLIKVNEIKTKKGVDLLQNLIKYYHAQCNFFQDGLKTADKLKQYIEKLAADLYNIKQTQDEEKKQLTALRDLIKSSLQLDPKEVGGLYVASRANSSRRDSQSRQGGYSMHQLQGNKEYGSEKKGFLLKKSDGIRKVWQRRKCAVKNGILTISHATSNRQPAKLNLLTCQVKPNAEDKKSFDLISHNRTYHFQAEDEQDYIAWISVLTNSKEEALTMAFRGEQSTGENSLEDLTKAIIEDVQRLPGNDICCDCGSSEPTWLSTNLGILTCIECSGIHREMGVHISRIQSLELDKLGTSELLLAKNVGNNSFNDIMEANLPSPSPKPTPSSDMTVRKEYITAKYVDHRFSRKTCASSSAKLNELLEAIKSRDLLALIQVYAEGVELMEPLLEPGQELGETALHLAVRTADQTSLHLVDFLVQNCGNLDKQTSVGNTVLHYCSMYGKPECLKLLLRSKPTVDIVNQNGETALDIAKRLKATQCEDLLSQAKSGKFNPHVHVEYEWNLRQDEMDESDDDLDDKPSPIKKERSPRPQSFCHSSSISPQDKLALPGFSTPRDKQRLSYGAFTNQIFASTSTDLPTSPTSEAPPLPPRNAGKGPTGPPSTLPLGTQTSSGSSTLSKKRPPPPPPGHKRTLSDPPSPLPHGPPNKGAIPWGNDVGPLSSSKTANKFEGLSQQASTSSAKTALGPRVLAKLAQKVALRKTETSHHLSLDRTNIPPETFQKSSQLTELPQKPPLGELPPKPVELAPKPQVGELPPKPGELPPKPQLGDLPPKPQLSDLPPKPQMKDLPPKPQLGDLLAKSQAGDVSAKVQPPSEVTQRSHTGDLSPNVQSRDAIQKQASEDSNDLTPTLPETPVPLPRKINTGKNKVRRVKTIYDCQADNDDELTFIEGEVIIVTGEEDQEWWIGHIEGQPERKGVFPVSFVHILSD
# Arf-GAP with SH3 domain, ANK repeat and PH domain-containing protein 1 (Mus musculus), Q9QWY8-2 R811A;P849A;P853A, sequence (Q9QWY8 other isoform, or with tags, fused parts or gaps R811A;P849A;P853A): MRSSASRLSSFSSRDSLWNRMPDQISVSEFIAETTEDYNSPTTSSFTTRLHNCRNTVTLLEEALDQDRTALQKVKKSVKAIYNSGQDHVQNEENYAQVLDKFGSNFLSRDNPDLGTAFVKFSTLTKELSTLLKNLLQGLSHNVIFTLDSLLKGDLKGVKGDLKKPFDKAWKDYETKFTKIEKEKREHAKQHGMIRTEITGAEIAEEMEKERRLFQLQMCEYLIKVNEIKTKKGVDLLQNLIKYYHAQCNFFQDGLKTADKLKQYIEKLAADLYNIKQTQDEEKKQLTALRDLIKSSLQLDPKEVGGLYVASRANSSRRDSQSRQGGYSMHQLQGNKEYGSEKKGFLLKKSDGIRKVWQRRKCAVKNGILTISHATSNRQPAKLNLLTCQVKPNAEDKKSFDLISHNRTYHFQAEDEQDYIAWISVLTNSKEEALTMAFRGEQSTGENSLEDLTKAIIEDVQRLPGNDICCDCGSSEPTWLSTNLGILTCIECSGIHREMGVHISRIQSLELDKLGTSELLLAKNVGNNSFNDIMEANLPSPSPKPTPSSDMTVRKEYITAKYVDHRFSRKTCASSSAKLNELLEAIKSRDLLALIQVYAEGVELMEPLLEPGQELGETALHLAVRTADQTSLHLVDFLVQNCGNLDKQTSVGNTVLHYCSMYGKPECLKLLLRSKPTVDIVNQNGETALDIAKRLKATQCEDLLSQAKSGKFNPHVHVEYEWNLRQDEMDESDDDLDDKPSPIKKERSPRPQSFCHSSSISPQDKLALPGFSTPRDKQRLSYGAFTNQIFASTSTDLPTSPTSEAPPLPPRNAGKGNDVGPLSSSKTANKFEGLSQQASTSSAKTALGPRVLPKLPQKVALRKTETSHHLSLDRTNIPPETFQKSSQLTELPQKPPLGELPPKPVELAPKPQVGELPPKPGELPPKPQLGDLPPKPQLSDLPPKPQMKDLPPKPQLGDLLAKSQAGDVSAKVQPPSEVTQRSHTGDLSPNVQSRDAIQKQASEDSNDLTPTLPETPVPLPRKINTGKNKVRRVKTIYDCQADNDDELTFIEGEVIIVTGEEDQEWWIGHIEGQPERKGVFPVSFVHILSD
# Arf-GAP with SH3 domain, ANK repeat and PH domain-containing protein 1 (Mus musculus), Q9QWY8-1 R811A;P910A;P913A, sequence (Q9QWY8 whole entry R811A/P910A/P913A, the tested form may be a part): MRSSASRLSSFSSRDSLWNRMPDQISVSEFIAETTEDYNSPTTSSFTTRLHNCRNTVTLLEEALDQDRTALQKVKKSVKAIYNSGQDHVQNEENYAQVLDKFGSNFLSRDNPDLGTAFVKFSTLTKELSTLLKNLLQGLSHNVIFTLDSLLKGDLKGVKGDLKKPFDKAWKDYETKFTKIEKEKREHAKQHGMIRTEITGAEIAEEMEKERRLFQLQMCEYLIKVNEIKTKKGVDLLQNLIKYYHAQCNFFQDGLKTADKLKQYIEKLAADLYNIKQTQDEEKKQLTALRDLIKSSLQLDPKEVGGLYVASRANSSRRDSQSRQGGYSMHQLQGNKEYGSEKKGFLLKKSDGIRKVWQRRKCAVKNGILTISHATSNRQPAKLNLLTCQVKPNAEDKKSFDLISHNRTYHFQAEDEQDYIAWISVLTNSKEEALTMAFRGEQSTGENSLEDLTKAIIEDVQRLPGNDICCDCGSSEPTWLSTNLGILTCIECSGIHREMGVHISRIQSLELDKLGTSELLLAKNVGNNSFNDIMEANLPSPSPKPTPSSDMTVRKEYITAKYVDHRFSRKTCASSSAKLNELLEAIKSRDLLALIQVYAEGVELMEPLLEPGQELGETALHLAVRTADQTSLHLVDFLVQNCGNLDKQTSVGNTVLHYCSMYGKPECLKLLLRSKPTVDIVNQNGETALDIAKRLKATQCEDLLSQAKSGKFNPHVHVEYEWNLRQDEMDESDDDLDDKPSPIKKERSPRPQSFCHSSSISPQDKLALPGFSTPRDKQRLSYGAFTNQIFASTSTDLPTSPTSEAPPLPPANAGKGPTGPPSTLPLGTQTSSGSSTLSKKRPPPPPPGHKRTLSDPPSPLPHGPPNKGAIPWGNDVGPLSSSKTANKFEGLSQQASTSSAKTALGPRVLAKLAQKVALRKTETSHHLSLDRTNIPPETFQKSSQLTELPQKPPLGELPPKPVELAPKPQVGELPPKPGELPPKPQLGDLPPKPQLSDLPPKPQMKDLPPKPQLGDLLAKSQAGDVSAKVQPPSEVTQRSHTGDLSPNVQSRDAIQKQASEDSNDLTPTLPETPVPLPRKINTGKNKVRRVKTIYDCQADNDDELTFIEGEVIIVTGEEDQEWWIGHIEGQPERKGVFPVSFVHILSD
Substance,effect of a mutation on the interaction (crk_human CRK),effect of a mutation on the interaction (src_chick SRC [1]),effect of a mutation on the interaction (src_chick SRC [2])
"Arf-GAP with SH3 domain, ANK repeat and PH domain-containing protein 1 (Mus musculus), Q9QWY8-1 R811A",decreasing interaction,decreasing interaction,
"Arf-GAP with SH3 domain, ANK repeat and PH domain-containing protein 1 (Mus musculus), Q9QWY8-1 P910A;P913A",decreasing interaction,decreasing interaction,
"Arf-GAP with SH3 domain, ANK repeat and PH domain-containing protein 1 (Mus musculus), Q9QWY8-2 R811A;P849A;P853A",,,disrupting interaction
"Arf-GAP with SH3 domain, ANK repeat and PH domain-containing protein 1 (Mus musculus), Q9QWY8-1 R811A;P910A;P913A",disrupting interaction,,
